Test results taken from publication doi:10.1101/2024.07.24.604958 (bioRxiv, 2024).
Substitutions are numbered along the chain they refer to. Read-outs that look alike come from different tables or passages of the source. Values belong to the binder of their own block, whether it stands above or below them.

How the values were obtained:
[1] = target: T1, CIB2, wild type, Trx-His6 tag removed (mouse, UniProt Q9Z309 1-187); assay: SEC-MALS
T1 sequence: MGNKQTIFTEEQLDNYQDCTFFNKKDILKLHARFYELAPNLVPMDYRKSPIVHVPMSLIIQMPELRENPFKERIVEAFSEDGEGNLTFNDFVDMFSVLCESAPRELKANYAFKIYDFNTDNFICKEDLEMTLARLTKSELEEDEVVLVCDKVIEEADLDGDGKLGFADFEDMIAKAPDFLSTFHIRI

[2] = target: T2, CIB2 (calcium and integrin-binding protein 2), wild type (mouse, UniProt Q9Z309 1-187); assay: ITC
T2 sequence: T1 sequence

CIB2-DD157/161AA = target: T3, CIB2-DD157/161AA (mouse, UniProt Q9Z309 1-187, DD157/161AA | DD157/161AA); assay: ITC
T3 sequence: T1 sequence with D157A, D161A

CIB2-DD116/120AA = target: T4, CIB2-DD116/120AA (mouse, UniProt Q9Z309 1-187, DD116/120AA | DD116/120AA); assay: ITC
T4 sequence: T1 sequence with D116A, D120A

[3] = target: T2, CIB2 (calcium and integrin-binding …); assay: ITC; remark: listed apart in the source
[4] = target: T1, CIB2, wild type, Trx-His6 tag removed; assay: SEC-MALS; remark: listed apart in the source
CIB2-E141N = target: T5, CIB2-E141N (mouse, UniProt Q9Z309 1-187, E141N); assay: crystal structure
T5 sequence: T1 sequence with E141N

stoichiometry N [1]: 1
Binder: KGQKAANLDLKKKMKQQALENKMRNKKMAAARAAAAAGGQ (domain or fragment, mouse, UniProt Q8R4P5 718-757, looked up) [TMC1 CR3 (amino acids 718-757) as used in SEC-MALS]

Kd [2]: ~43400 nM
Binder: KGQKAANLDLKKKMKQQALENKMRNKKMAAARAAAAAGGQ (domain or fragment, mouse, UniProt Q8R4P5 718-757, looked up) [TMC1 cytosolic region 3 (CR3, amino acids 718-757)]

Kd [2]: ~870 nM | fold decrease of binding against CIB2 WT (CIB2-DD157/161AA): ~50 fold | fold decrease of binding against CIB2 WT (CIB2-DD116/120AA): ~150 fold | Kd [3]: ~74 nM
Binder: EELERLKALLDENRQMIATVKCKPWKMEKKIEVLKEAKKFVSENEGALGK (domain or fragment, mouse, UniProt Q8R4P5 81-130, looked up) [TMC1 cytosolic region 1 (CR1, amino acids 81-130)]

stoichiometry N [4]: 1 | binding result (CIB2-E141N): binds
Binder: EELERLKALLDENRQMIATVKCKPWKMEKKIEVLKEAKKFVSENEGALGK (domain or fragment, mouse, UniProt Q8R4P5 81-130, looked up) [TMC1 CR1 (amino acids 81-130), Trx-His6 tag removed]

Kd [2]: ~10800 nM | Kd [3]: ~480 nM
B1: TMC1 cytosolic region 2 (CR2, amino acids 298-352) with MBP tag (domain or fragment, mouse, UniProt Q8R4P5 298-352, looked up)
chain: GGGDDNTFNFSWKVFCSWDYLIGNPETADNKFNSITMNFKEAIIEERAAQVEENI

stoichiometry N [4]: 1
B2: TMC1 CR2 (amino acids 298-352) as used in SEC-MALS (domain or fragment, mouse, UniProt Q8R4P5 298-352, looked up)
chain: B1 chain
